Here are results for 3 substances from article PMC5584228.

For experiment [1], the target named is Fc hole chain of mutant KiHss (Y349C/T366S/L368A/Y407V) (human). The experiment is described as follows: non-reducing SDS-PAGE of co-expressed chains; scFv-Fc chain (A) and Fc chain (B) co-transfected 1:1 in HEK 293H; secreted Fcs purified by Protein A; disulphide-linked dimers AA, AB and BB told apart by size and quantified by densitometry (ImageLab).
In experiment [2] the target is Fc hole chain with F405K (Y349C/T366S/L368A/Y407V/F405K), of mutants KiHss-Kh, KiHss-AkKh and KiHss-KkKh (human). The description is as above.

Turning to “scFv-Fc knob chain of mutant KiHss (S354C/T366W) (Fc fusion)”, the heterodimeric Fc (AB), percent of total Fcs was 73% in experiment [1] and above 80% in experiment [2].
Regarding “scFv-Fc knob chain of mutant KiHss-AkKh (S354C/T366W/K409A) (Fc fusion)”, in experiment [2], the heterodimeric Fc (AB), percent of total Fcs came out at 94%.
Take “scFv-Fc knob chain with F405K (S354C/T366W/F405K), of mutants KiHss-Kk and KiHss-KkKh (Fc fusion)”: the heterodimeric Fc (AB), percent of total Fcs in experiment [1] is above 80%.
